Measurements as given in patent US20100199363A1, “ENZYMES FOR DEGRADING HERBICIDES” (priority 2006, published 2010).
Where two headings read alike, the source gives them in different places.

Tests used:
[1] = tested on: GloxA; experiment: Substrate range of partially purified recombinant GloxA; type: biochemical, Arthrobacter sp. TBD; details: for Removal of substrate, Specific Activity: partially purified recombinant GloxA; for Removal of substrate, Relative Activity: relative to glyphosate = 100
Experimental: (§1) Crude enzyme extracts from E. coli cells were prepared as follows. Cells were harvested and the cell pellets resuspended in 1 mL lysis buffer (25 mM Tris-Cl pH 7.5 with 1 mgml^−1 lysosyme) and lysed by sonication on ice (Branson sonifier, 60% duty cycle, 30 seconds on, 30 seconds off for ten repeats). The soluble fraction was collected by centrifugation at 5000 g for 5 minutes and the protein content measured using Biorad protein dye-binding assay (BIORAD). Partially purified extracts were prepared by purification of the S-tagged or HIS-tagged GloxA protein from soluble CFE using S-protein agarose (Novagen) the Talon HIS-tag Purification System (BD Biosciences), according to manufacturer's instructions. Partially pure GloxA was eluted from the column using either 3M MgCl2 or 2.5 mM imidazole in the loading buffer. Enzyme reactions were prepared containing 500 μL crude enzyme extract or 250 μL partially purified enzyme extract (˜10 μg protein lysate) in 25 mM Tris-Cl pH7.5, 1 mM FAD, 0.1 mM MgCl2. After preincubation at 37° C. for 2 minutes, 1 mM glyphosate was added to the reaction, which was then incubated with shaking for a further 10-60 minutes. After the required reaction time, reactions were derivatized with tosyl chloride and analysed by HPLC as described above. All enzyme assays were performed in triplicate and repeated at least twice to confirm data. For determination of apparent kinetic parameters, substrate concentrations were varied over a suitable range, and the data fitted to a sum of exponential equations using Kaleidagraph (Synergy Software) or Hyper 1.1 (J. S. Easterby).

[2] = Resting cell biocatalytic assay of cells expressing recombinant GloxA; type: cell-based, E. coli
Experimental: (§2) Detection of glyphosate and AMPA by HPLC analysis was performed using a modified version of the method of Tomita et al. (1991) (Column: C18 4.6 uM, 5 Å column. Mobile Phase: 0.2MK2HPO4, 15% acetonitrile). Analytes were derivatized with tosyl chloride and detected at a wavelength of 240 nm. One ml of reaction supernatant was mixed with 0.5 mL 0.4MNaHPO4 pH 11.0, followed by addition of 200 μL tosyl chloride solution (10 mgmL^−1 p-toluene sulfonylchloride [Sigma] in acetonitrile). After incubation at 50° C. for 5 minutes, 20 μL of filtered reaction product was injected onto the HPLC for analysis.
The glyphosate-degrading protein was designated GloxA, and sub-cloning of gloxA into an expression vector and assaying for glyphosate-degrading activity confirmed cells expressing recombinant GloxA were able to degrade glyphosate, with resting cell biocatalytic assays having glyphosate-degrading activity of 300 μmol min^−1 mg wet cell mass^−1, and crude enzyme extracts having an activity of 841 μmolmin^−1mg total protein (Table 2). Of importance is that glycine was not detected as a product at this stage of the analysis of GloxA, and is presumed to have been rapidly metabolized by other enzymes contained within the E. coli resting cells and crude enzyme extract preparation.

[3] = GloxA enzyme assay with crude or partially purified extracts, HPLC after tosyl chloride derivatization; type: biochemical
Experimental: as §2, §1

[4] = Apparent kinetic parameters of GloxA, glyphosate as substrate; type: biochemical; details: herbicide glyphosate
Experimental: as §1, with “For determination of apparent kinetic parameters, substrate concentrations were varied over a suitable range, and the data fitted to a sum of exponential equations using Kaleidagraph (Synergy Software) or Hyper 1.1 (J. S. Easterby).” left out

[5] = Apparent kinetic parameters of GloxA, glufosinate as substrate; type: biochemical; details: herbicide glufosinate
Experimental: as §1, with “After preincubation at 37° C. for 2 minutes, 1 mM glyphosate was added to the reaction, which was then incubated with shaking for a further 10-60 minutes.” left out, “For determination of apparent kinetic parameters, substrate concentrations were varied over a suitable range, and the data fitted to a sum of exponential equations using Kaleidagraph (Synergy Software) or Hyper 1.1 (J. S. Easterby).” left out

[6] = Glyphosate degradation by GloxA-like homologous proteins, soluble cell-free extracts; type: biochemical; details: soluble cell-free protein extracts
Text: Selected putative GloxA-like homologous proteins were then expressed and assayed for glyphosate degradative activity. The nucleotide coding sequences of selected putative homologues were commercially synthesised (Geneart, GmBH), cloned and expressed using the Champion pET200D/TOPO. Expression System (Invitrogen), according to manufacturer's instructions. Recombinant protein expression was verified and quantitated by Coomasie-stained SDS-PAGE analysis and spot-densitometry using AlphaImager 2200 visualization and documentation system (Alpha Innotech).
Enzymatic assays to assess glyphsate degradation were, performed using soluble cell-free protein extracts (partially purified protein) in a 1 ml volume containing 100 μg total cell-free protein (˜10 μg enzyme extract), 1 mM MgCl2, 1 mM glycine in 20 mM Tris-Cl pH 7.2. Negative controls included cell-free extracts from E. coli BL21 Star both containing no expression vector and containing pET200D/TOPO without an insert.

[7] = Side-by-side assay of GloxA and synthetic GOX extracts, glyphosate; type: biochemical; details: extracts assayed side-by-side, FIG. 4
Experimental: (§3) Crude enzyme extracts from E. coli cells were prepared as follows. Cells were harvested and the cell pellets resuspended in 1 mL lysis buffer (25 mM Tris-Cl pH 7.5 with 1 mgml^−1 lysosyme) and lysed by sonication on ice (Branson sonifier, 60% duty cycle, 30 seconds on, 30 seconds off for ten repeats). The soluble fraction was collected by centrifugation at 5000 g for 5 minutes and the protein content measured using Biorad protein dye-binding assay (BIORAD). Partially purified extracts were prepared by purification of the S-tagged or HIS-tagged GloxA protein from soluble CFE using S-protein agarose (Novagen) the Talon HIS-tag Purification System (BD Biosciences), according to manufacturer's instructions. […] After the required reaction time, reactions were derivatized with tosyl chloride and analysed by HPLC as described above. […]
(§4) For the purposes of direct comparison between the enzymes, a synthetic construct was made encoding the GOX gene based on SEQ ID NO:17 from U.S. Pat. No. 5,776,760. […] Soluble protein expression of GOX was optimized under varying temperature and IPTG conditions, and GOX protein expression detected by Coomasie-stained SDS-PAGE analysis and GOX enzymatic activity assayed as described above for GloxA, with HPLC analysis of activity to detect the removal of glyphosate and production of AMPA according to analytical methods above.

[8] = Side-by-side assay of GloxA and synthetic GOX extracts, iminodiacetic acid; type: biochemical; details: extracts assayed side-by-side, FIG. 4
Experimental: as §3, §4

[9] = tested on: A. thaliana var. Landsberg; experiment: Glyphosate tolerance of Arabidopsis plants expressing GloxA (Tolerance Score); type: in vivo, Arabidopsis thaliana; details: five times the normal dose (12.5 kga.i.ha^−1), Day 8 post-application of herbicide
Text: FIG. 5. […] To obtain the Tolerance Score, plants were visually assessed for leaf health, plant radius and flowering on Day 8 post-application of herbicide. Untreated controls in perfect health scored 7-8 under the same system.
T1 seedlings can be transplanted and cultivated for seed through two generations to eventually isolate the homozygous T3 seeds. T2 and T3 plants were then screened for increased resistance to glyphosate, essentially using the methods described by Jander et al. (2003), but with A. thaliana var. Landsberg, not Columbia, and using treatment doses ranging from 2.5-25 kg a.i. ha^−1. The scores given in FIG. 5 are for a dose of 5× the expected I100 dose (12.5 kga.i.ha^−1)

[10] = GloxA enzyme assay with crude or partially purified extracts, HPLC after tosyl chloride derivatization; type: biochemical; details: for Glyphosate Removal: partially purified GloxA
[11] = herbicide glyphosate; Siehl et al. (2005), WO 92/00377; cited from earlier work
[12] = wildtype GOX, U.S. Pat. No. 5,776,760; cited from earlier work

Molecule: NCP(=O)(O)O [AMPA, aminomethylphosphonic acid]
- Removal of substrate, Specific Activity [1]: 602 μmolmin^−1 mg^−1
- Removal of substrate, Relative Activity [1]: 71%

Molecule: O=C(O)CNCP(=O)(O)O [glyphosate, N-(phosphonomethyl)glycine]
- Removal of substrate, Specific Activity [1]: 841 μmolmin^−1 mg^−1
- Removal of substrate, Relative Activity [1]: 100%

Molecule: O=C(O)CNCC(=O)O [iminodiacetic acid]
- Removal of substrate, Specific Activity [1]: 5013 μmolmin^−1 mg^−1
- Removal of substrate, Relative Activity [1]: 598%

B1: GloxA: 473 amino acid glyphosate-degrading putative oxidoreductase from Arthrobacter sp. TBD, SEQ ID NO:1 (protein)
chain: VKTTVFERNVPQTAVVSHALAGAAHRPYWIDHLQDSATRYPQLDGDAAADLVIVGGGYTGLWTALRAKERDPGRTVILLEGEQVAWAASGRNGGFCEASLTHGHENGKNRWPDELETLDRLGMENLDRMQEAVEKYAMDCEWERTGELNVAVEPHQVAWLQEDDTPGSVFLDQDAVRAEVNSPTYLAGRWHKDSVAMVHPYKLGLELARVATELGVVIYEGTRVRELNDHEHGVTVVTERGIVEAGHVVLGTNVFPSLLKRNQLMTVPVYDYALMTEPLTAEQLESIGWGKRQGIGDVANQFHYYRITKDHRILFGGYDALYFWGRRVDQKHEHQPATWEKIASHFFTTFPQLEGLKFTHKWAGPIDSSTQFCAFFGTARKGRVAYAAGFTGLGVGATAFAADVLLDLLAGLDTERTRLEMVRKRPLPFPPEPLASLGINLTRWSMDRADHNQGKRNIILKALDAVGLGFDS
modifications: Arthrobacter sp. TBD
- Catalytic Activity, Removal of glyphosate [2]: 300 μmolmin^−1 mg^−1 wet cell mass
- Specific Activity, Removal of glyphosate ([3]; Crude enzyme extract, approximate value): 841 μmolmin^−1 mg^−1 protein
- glycine as a product ([3]; E. coli resting cells and crude enzyme extract preparation): not detected
- Specific Activity, Production of glycine ([3]; PPE + FAD + Mg^2+): 548 μmolmin^−1 mg^−1 protein
- production of AMPA from glyphosate ([3]; crude extracts and partially purified GloxA): no production
- Glyphosate Removal ([3]; partially purified GloxA, Std (Mg^2+)): 856 µmol/min/mg
- Specific Activity, Removal of glyphosate ([3]; partially purified enzyme extract, PPE + FAD + Mg^2+): 1590 μmolmin^−1 mg^−1 protein
- Kcat [4]: 179.97 s⁻¹
- Km [4]: 56 µM
- Kcat [5]: 158.9 s⁻¹
- Km [5]: 1200 µM
- Partially Purified Activity [glyphosate degradation] [6]: 841 µmol/min/mg
- specific activity towards glyphosate compared with GOX [7]: almost two fold higher
- specific activity towards iminodiacetic acid compared with GOX [8]: 0.9 times less
- tolerance to glyphosate (Tolerance Score) [9]: confers tolerance
- Specific Activity, Production of glycine ([10]; PPE + FAD − Mg^2+): 413 μmolmin^−1 mg^−1 protein
- Specific Activity, Removal of glyphosate ([10]; PPE + FAD − Mg^2+): 838 μmolmin^−1 mg^−1 protein
- Specific Activity, Production of glycine ([10]; PPE − FAD + Mg^2+): 562 μmolmin^−1 mg^−1 protein
- Specific Activity, Removal of glyphosate ([10]; PPE − FAD + Mg^2+): 1450 μmolmin^−1 mg^−1 protein
- Glyphosate Removal ([10]; Co^2+): 1076 µmol/min/mg
- Glyphosate Removal ([10]; No FAD): 520 µmol/min/mg
- Glyphosate Removal ([10]; No Metals (+EDTA)): 432 µmol/min/mg
- Glyphosate Removal ([10]; Zn^2+): 624 µmol/min/mg

B2: GOX: Glyphosate oxidoreductase producing AMPA and glyoxylate from glyphosate, SEQ ID NO:3 (protein)
chain: MSENHKKVGIAGAGIVGVCTALMLQRRGFKVTLIDPNPPGEGASFGNAGCFNGSSVVPMSMPGNLTSVPKWLLDPMGRCQSGSAISNHHAWLIRFLLAGRPNKVKEQAKALRNLIKSTVPLIKSLAEEADASHLIRHEGHLTVYRGEADFAKDRGGWELRRLNGVRTQILSADALRDFDPNLSHAFTKGILIEENGHTINPQGLVTLLFRRFIANGGEFVSARVIGFETEGRALKGITTTNGVLAVDAAVVAAGAHSKSLANSLGDDIPLDTERGYHIVIANPEAAPRIPTTDASGKFIATPMEMGLRVAGTVEFAGLTAAPNWKRAHVLYTHARKLLPALAPASSEERYSKWMGFRPSIPDSLPVIGRATRTPDVIYAFGHGHLGMTGAPMTATLVSELLAGEKTSIDISPFAPNRFGIGKSKQTGPAS
modifications: Pseudomonas sp. LBAA
- Kcat [11]: 0.667 s⁻¹
- Km [11]: 25000 to 28000 µM
- specific activity [12]: 15 nmolmin^−mg^−1
